Target: T1, interaction (binding) between FKBP12 and FRB (Homo sapiens, UniProt P42345+P62942)
T1 construct: FLAG-FRB expression vector; expressed in transfected cells; host or cells: HEK-293T (ATCC CRL-11268)
Assay: Split SEAP fragment complementation: SEAP activity in culture supernatant (pNpp, absorbance 405 nm) after rapamycin-induced FKBP12-FRB binding
Assay type: cell-based
Details: HEK-293T cells, same manner as Example 2; for SEAP activity of the pair pSNA387 with pSCA380 (FIG. 6): N-terminal fragment cleaved at 387, C-terminal fragment cleaved at 379; for SEAP activity of the pair pSNA418 with pSCA405 or pSCB405 (FIG. 6): N-terminal fragment cleaved at 418, C-terminal fragment cleaved at 404; for SEAP activity of the pair pSNA379 with pSCA373 or pSCB373 (FIG. 6): N-terminal fragment cleaved at 379, C-terminal fragment cleaved at 372; for SEAP activity of the pair pSNA404 with pSCA388 or pSCB388 (FIG. 6): N-terminal fragment cleaved at 404, C-terminal fragment cleaved at 387
Procedure: HEK-293T (Human embryonic kidney cell, ATCC: CRL-11268) cells were cultured in DMEM (Dulbecco's modified Eagle's media, Gibco, Seoul, South Korea) treated with a 10% (v/v) FBS (HyClone) and 1% (v/v) penicillin/streptomycin solution (HyClone) and cultured at 37° C. in a humidified atmosphere containing 5% CO2.
HEK-293T cells were seeded at 2×10^4 cells per well in a 48-well plate and cultured until 24 hours before transformation.
For the transformation, 0.15 μL of PEI (PEI, <20,000 MW, Cat. No. 23966, Polysciences, Inc., Warrington, Pa., USA; stock solution: 4 mg/mL in ddH20, pH 7.2) was mixed with 0.2 pLg of DNA, and the mixture was vortexed for 5 seconds and then incubated for 20 minutes at 25° C. to prepare 40 μL of DNA-PEI mixture per well. At this time, the DNA was prepared by mixing a vector (pSNA series) containing a SEAP N-terminal fragment and a vector (pSCA or pSCB series) containing a SEAP C-terminal fragment.
After 24 hours of the transformation, the culture medium was replaced with DMEM with 100 nM rapamycin or DMEM without rapamycin.
SEAP activity was measured after 24 hours. The SEAP activity was measured in a time course using a p-nitrophenylphosphate (pNpp)-based absorbance (405 nm) measuring method. 80 μL of a culture medium supernatant, 100 μL of a 2× SEAP buffer solution (21% diethanolamine, 20 mM L-homoarginine, and 1 mM MgCl2, pH 9.8), and 20 μL of 120 mM pNpp were mixed and reacted with one another, and then absorbance at 405 nm was measured.

T1 sequence (P62942 whole entry): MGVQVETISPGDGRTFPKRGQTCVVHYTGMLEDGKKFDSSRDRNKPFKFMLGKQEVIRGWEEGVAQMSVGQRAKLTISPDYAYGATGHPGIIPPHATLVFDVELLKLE
T1 sequence (P42345 2012-2144): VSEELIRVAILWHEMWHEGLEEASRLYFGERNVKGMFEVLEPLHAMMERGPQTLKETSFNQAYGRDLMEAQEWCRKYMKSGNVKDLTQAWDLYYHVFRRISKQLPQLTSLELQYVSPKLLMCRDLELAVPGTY

pSNA387: HA-FKBP-snSEAP fusion: SEAP N-terminal fragment (1-387), expression vector
SEAP activity of the pair pSNA387 with pSCA380 (FIG. 6): excellent SEAP activity

pSNA418: HA-FKBP-snSEAP fusion: SEAP N-terminal fragment (1-418), expression vector
SEAP activity of the pair pSNA418 with pSCA405 or pSCB405 (FIG. 6): excellent SEAP activity

pSNA379: HA-FKBP-snSEAP fusion: SEAP N-terminal fragment (1-379) fused to C-terminal of FKBP12, expression vector
SEAP activity of the pair pSNA379 with pSCA373 or pSCB373 (FIG. 6): excellent SEAP activity

pSNA404: HA-FKBP-snSEAP fusion: SEAP N-terminal fragment (1-404), expression vector
SEAP activity of the pair pSNA404 with pSCA388 or pSCB388 (FIG. 6): excellent SEAP activity

B1: pSCA373: FLAG-FRB-scSEAP fusion: SEAP C-terminal fragment (373-502), cleaved at position 372, expression vector (protein)
chain: ILWHEMWHEGLEEASRLYFGERNVKGMFEVLEPLHAMMERGPQTLKETSFNQAYGRDLMEAQEWCRKYMKSGNVKDLTQAWDLYYHVFRRISKKGSGSTSGSGSIFGLAPGKARDRKAYTVLLYGNGPGYVLKDGARPDVTESESGSPEYRQQSAVPLDEETHAGEDVAVFARGPQAHLVHGVQEQTFIAHVMAFAACLEPYTACDLAPPAGTTDAAHPGYSRVGAAGRFEQT
modifications: left off: small tags and cut ends
notes: FLAG-FRB-scSEAP fusion: SEAP C-terminal fragment (373-502), cleaved at position 372, expression vector
SEAP activity of the pair pSNA379 with pSCA373 or pSCB373 (FIG. 6): excellent SEAP activity

B2: pSCB388: scSEAP-FRB-FLAG fusion: SEAP C-terminal fragment (388-502), cleaved at position 387, expression vector (protein)
chain: YTVLLYGNGPGYVLKDGARPDVTESESGSPEYRQQSAVPLDEETHAGEDVAVFARGPQAHLVHGVQEQTFIAHVMAFAACLEPYTACDLAPPAGTTDAAHPGYSRVGAAGRFEQTKGSGSTSGSGILWHEMWHEGLEEASRLYFGERNVKGMFEVLEPLHAMMERGPQTLKETSFNQAYGRDLMEAQEWCRKYMKSGNVKDLTQAWDLYYHVFRRISK
modifications: left off: small tags and cut ends
notes: scSEAP-FRB-FLAG fusion: SEAP C-terminal fragment (388-502), cleaved at position 387, expression vector
SEAP activity of the pair pSNA404 with pSCA388 or pSCB388 (FIG. 6): excellent SEAP activity

B3: pSCA405: FLAG-FRB-scSEAP fusion: SEAP C-terminal fragment (405-502), cleaved at position 404, expression vector (protein)
chain: ILWHEMWHEGLEEASRLYFGERNVKGMFEVLEPLHAMMERGPQTLKETSFNQAYGRDLMEAQEWCRKYMKSGNVKDLTQAWDLYYHVFRRISKKGSGSTSGSGARPDVTESESGSPEYRQQSAVPLDEETHAGEDVAVFARGPQAHLVHGVQEQTFIAHVMAFAACLEPYTACDLAPPAGTTDAAHPGYSRVGAAGRFEQT
modifications: left off: small tags and cut ends
notes: FLAG-FRB-scSEAP fusion: SEAP C-terminal fragment (405-502), cleaved at position 404, expression vector
SEAP activity of the pair pSNA418 with pSCA405 or pSCB405 (FIG. 6): excellent SEAP activity

B4: pSCB405: scSEAP-FRB-FLAG fusion: SEAP C-terminal fragment (405-502), cleaved at position 404, expression vector (protein)
chain: ARPDVTESESGSPEYRQQSAVPLDEETHAGEDVAVFARGPQAHLVHGVQEQTFIAHVMAFAACLEPYTACDLAPPAGTTDAAHPGYSRVGAAGRFEQTKGSGSTSGSGILWHEMWHEGLEEASRLYFGERNVKGMFEVLEPLHAMMERGPQTLKETSFNQAYGRDLMEAQEWCRKYMKSGNVKDLTQAWDLYYHVFRRISK
modifications: left off: small tags and cut ends
notes: scSEAP-FRB-FLAG fusion: SEAP C-terminal fragment (405-502), cleaved at position 404, expression vector
SEAP activity of the pair pSNA418 with pSCA405 or pSCB405 (FIG. 6): excellent SEAP activity

B5: pSCA388: FLAG-FRB-scSEAP fusion: SEAP C-terminal fragment (388-502), cleaved at position 387, expression vector (protein)
chain: ILWHEMWHEGLEEASRLYFGERNVKGMFEVLEPLHAMMERGPQTLKETSFNQAYGRDLMEAQEWCRKYMKSGNVKDLTQAWDLYYHVFRRISKKGSGSTSGSGYTVLLYGNGPGYVLKDGARPDVTESESGSPEYRQQSAVPLDEETHAGEDVAVFARGPQAHLVHGVQEQTFIAHVMAFAACLEPYTACDLAPPAGTTDAAHPGYSRVGAAGRFEQT
modifications: left off: small tags and cut ends
notes: FLAG-FRB-scSEAP fusion: SEAP C-terminal fragment (388-502), cleaved at position 387, expression vector
SEAP activity of the pair pSNA404 with pSCA388 or pSCB388 (FIG. 6): excellent SEAP activity

B6: pSCB373: scSEAP-FRB-FLAG fusion: SEAP C-terminal fragment (373-502), cleaved at position 372, expression vector (protein)
chain: SIFGLAPGKARDRKAYTVLLYGNGPGYVLKDGARPDVTESESGSPEYRQQSAVPLDEETHAGEDVAVFARGPQAHLVHGVQEQTFIAHVMAFAACLEPYTACDLAPPAGTTDAAHPGYSRVGAAGRFEQTKGSGSTSGSGILWHEMWHEGLEEASRLYFGERNVKGMFEVLEPLHAMMERGPQTLKETSFNQAYGRDLMEAQEWCRKYMKSGNVKDLTQAWDLYYHVFRRISK
modifications: left off: small tags and cut ends
notes: scSEAP-FRB-FLAG fusion: SEAP C-terminal fragment (373-502), cleaved at position 372, expression vector
SEAP activity of the pair pSNA379 with pSCA373 or pSCB373 (FIG. 6): excellent SEAP activity

B7: pSCA380: FLAG-FRB-scSEAP fusion: SEAP C-terminal fragment (380-502), cleaved at position 379, expression vector (protein)
chain: ILWHEMWHEGLEEASRLYFGERNVKGMFEVLEPLHAMMERGPQTLKETSFNQAYGRDLMEAQEWCRKYMKSGNVKDLTQAWDLYYHVFRRISKKGSGSTSGSGGKARDRKAYTVLLYGNGPGYVLKDGARPDVTESESGSPEYRQQSAVPLDEETHAGEDVAVFARGPQAHLVHGVQEQTFIAHVMAFAACLEPYTACDLAPPAGTTDAAHPGYSRVGAAGRFEQT
modifications: left off: small tags and cut ends
notes: FLAG-FRB-scSEAP fusion: SEAP C-terminal fragment (380-502), cleaved at position 379, expression vector
SEAP activity of the pair pSNA387 with pSCA380 (FIG. 6): excellent SEAP activity
